The target in assay [1] is T1, HERC2_(ZZ-DOC) (aa 2702–2914), construct encompassing both ZZ and DOC domains (human, UniProt O95714 2702-2914).
T1 construct: E3 ubiquitin ligase HERC2, human, ZZ and DOC domains, aa 2702–2914; 15N-labelled for NMR; also called linked HERC2_(ZZ-DOC); source: E. coli BL21 (DE3) RIL, purified (Ni-NTA, ULP1 cleavage); not shown: His8x-SUMO, N-terminal, cleaved
Kind of assay: NMR titration; 1H,15N HSQC of 0.1–0.2 mM 15N-labelled HERC2 protein titrated with unlabeled protein or peptide; 298 K; 20 mM Tris (pH 6.8) or 20 mM PBS (pH 6.5), 150 mM NaCl, 2 mM DTT, 10% D2O. The settings on record: both partners purified.

Assay [2] addresses T2, ZZ domain of HERC2 (HERC2ZZ, aa 2702–2755 with additional tryptophan at the C-terminus) (human, UniProt O95714 2702-2755).
T2 construct: E3 ubiquitin ligase HERC2, human, ZZ domain, aa 2702–2755 of the 4834 residue protein; additional tryptophan residue introduced at the C-terminus of HERC2ZZ to quantify the protein and for the tryptophan fluorescence assay; 15N-labelled in the NMR titrations where it is the observed protein; also called HERCZZ; WT HERC2ZZ; source: E. coli BL21 (DE3) RIL, purified (Ni-NTA, ULP1 cleavage; unlabeled …)
T2 chain: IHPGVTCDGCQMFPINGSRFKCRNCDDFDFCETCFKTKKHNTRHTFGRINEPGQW
Described as above. The settings on record: both partners purified.

B1: histone H3_(1–12) peptide (aa 1–12 of H3) (peptide, UniProt P68431 2-13, looked up)
peptide: ARTKQTARKSTG
notes: histone H3, aa 1–12; also called H3 peptide
Turning to B1, the binding result in assay [1] and in assay [2] was “binds” in each case.

The values above are taken from publication PMC9001736 (Scientific Reports, 2022).
